Results on one substance are retold here after IntAct's records for PubMed 24525236.

This assay addresses flt3_human FLT3 (UniProt P36888).

Sequence of flt3_human FLT3 (P36888 whole entry): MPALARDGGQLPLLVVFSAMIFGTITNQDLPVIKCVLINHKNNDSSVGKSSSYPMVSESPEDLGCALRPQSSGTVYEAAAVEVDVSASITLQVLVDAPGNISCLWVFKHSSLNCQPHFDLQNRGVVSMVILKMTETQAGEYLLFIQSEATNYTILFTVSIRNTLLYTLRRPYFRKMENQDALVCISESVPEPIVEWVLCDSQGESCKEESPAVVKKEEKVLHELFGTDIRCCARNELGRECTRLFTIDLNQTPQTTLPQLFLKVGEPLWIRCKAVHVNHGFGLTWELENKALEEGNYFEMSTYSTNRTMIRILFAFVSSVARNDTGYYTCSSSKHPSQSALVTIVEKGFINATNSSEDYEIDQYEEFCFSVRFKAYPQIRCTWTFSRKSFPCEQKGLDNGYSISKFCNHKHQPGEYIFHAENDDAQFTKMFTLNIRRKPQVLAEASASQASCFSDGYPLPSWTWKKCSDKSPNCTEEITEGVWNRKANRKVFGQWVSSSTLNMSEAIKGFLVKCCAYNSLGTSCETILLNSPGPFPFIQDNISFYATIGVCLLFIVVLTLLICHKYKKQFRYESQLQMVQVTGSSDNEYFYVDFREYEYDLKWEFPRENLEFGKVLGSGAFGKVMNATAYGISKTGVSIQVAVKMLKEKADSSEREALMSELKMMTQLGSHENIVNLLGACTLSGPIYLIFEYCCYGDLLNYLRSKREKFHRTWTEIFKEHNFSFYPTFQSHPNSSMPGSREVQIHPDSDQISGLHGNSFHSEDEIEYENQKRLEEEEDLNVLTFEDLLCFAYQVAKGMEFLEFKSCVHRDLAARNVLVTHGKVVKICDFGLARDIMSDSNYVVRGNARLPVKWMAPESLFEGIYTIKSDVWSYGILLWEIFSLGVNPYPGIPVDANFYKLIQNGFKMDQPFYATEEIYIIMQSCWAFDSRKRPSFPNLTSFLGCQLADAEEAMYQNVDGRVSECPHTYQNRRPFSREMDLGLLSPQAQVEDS

Take “Tyrosine-protein kinase SYK (Homo sapiens) (from UniProt P43405) R195G;R197L”: the “effect of a mutation on the interaction” value is on record as “decreasing interaction”.
